The record followed here is US20250290040A1.

The target of this assay is IFNγR-IL2/IL15R signal converter. Put plainly: cell-based or functional assay.
Sequence of IFNγR-IL2/IL15R signal converter (chain, as listed by the source limits assumed, chain 1 of 2): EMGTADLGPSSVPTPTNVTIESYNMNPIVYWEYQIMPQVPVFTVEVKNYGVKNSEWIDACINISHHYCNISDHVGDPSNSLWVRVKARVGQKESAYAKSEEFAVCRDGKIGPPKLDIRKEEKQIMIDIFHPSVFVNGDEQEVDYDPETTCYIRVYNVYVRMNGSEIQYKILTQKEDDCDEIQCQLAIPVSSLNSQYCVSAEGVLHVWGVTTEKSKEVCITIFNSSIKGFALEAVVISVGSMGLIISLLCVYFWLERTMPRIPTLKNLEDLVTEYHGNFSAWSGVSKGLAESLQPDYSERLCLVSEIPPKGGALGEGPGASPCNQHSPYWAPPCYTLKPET
Sequence of IFNγR-IL2/IL15R signal converter (chain, as listed by the source limits assumed, chain 2 of 2): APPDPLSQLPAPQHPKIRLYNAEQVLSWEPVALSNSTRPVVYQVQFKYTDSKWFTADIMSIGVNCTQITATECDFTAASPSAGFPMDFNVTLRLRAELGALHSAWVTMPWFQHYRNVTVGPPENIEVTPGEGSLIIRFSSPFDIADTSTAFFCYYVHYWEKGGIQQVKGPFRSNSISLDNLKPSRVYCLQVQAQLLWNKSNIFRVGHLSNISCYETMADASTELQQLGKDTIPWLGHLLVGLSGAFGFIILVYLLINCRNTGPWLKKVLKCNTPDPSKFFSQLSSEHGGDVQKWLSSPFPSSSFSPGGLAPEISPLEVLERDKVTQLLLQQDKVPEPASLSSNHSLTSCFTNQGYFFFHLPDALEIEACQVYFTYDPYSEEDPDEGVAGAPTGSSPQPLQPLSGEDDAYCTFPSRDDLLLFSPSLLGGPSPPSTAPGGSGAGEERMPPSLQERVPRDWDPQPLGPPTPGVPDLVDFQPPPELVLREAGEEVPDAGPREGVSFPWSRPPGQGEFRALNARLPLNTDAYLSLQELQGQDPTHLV

As for “IFN-γ (from UniProt P01579 24-166) (ligand)”, the cell proliferation (Tag-it violet cell tracking staining), 6 days under IFN-γ treatment was 40% and the percentage of proliferation (flow cytometry, Tag-it Violet), 6 days, 5 ng/mL IFN-γ was 42.3%.
